Molecular target: T1, Rpb1 subunit of yeast Pol II (S. cerevisiae, UniProt P04050 1-1733)
T1 construct: Rpb1, largest subunit of S. cerevisiae RNA polymerase II; identified as the labelled band after SDS-PAGE; source: subunit within purified S. cerevisiae Pol II
Assay: proximity labelling; in vitro biotinylation (BioID): 0-8 pmol hNDF-BirA* with 25 pmol yPol II in 20 μL; 20 mM HEPES pH 7.5, 10 mM MgCl2, 100 mM KCl, 1.5 mM ATP, 5% glycerol, 0.5 μM biotin; 30 °C, 1 h; SDS-PAGE and streptavidin-HRP blot
Conditions: both partners purified

T1 sequence (P04050 whole entry): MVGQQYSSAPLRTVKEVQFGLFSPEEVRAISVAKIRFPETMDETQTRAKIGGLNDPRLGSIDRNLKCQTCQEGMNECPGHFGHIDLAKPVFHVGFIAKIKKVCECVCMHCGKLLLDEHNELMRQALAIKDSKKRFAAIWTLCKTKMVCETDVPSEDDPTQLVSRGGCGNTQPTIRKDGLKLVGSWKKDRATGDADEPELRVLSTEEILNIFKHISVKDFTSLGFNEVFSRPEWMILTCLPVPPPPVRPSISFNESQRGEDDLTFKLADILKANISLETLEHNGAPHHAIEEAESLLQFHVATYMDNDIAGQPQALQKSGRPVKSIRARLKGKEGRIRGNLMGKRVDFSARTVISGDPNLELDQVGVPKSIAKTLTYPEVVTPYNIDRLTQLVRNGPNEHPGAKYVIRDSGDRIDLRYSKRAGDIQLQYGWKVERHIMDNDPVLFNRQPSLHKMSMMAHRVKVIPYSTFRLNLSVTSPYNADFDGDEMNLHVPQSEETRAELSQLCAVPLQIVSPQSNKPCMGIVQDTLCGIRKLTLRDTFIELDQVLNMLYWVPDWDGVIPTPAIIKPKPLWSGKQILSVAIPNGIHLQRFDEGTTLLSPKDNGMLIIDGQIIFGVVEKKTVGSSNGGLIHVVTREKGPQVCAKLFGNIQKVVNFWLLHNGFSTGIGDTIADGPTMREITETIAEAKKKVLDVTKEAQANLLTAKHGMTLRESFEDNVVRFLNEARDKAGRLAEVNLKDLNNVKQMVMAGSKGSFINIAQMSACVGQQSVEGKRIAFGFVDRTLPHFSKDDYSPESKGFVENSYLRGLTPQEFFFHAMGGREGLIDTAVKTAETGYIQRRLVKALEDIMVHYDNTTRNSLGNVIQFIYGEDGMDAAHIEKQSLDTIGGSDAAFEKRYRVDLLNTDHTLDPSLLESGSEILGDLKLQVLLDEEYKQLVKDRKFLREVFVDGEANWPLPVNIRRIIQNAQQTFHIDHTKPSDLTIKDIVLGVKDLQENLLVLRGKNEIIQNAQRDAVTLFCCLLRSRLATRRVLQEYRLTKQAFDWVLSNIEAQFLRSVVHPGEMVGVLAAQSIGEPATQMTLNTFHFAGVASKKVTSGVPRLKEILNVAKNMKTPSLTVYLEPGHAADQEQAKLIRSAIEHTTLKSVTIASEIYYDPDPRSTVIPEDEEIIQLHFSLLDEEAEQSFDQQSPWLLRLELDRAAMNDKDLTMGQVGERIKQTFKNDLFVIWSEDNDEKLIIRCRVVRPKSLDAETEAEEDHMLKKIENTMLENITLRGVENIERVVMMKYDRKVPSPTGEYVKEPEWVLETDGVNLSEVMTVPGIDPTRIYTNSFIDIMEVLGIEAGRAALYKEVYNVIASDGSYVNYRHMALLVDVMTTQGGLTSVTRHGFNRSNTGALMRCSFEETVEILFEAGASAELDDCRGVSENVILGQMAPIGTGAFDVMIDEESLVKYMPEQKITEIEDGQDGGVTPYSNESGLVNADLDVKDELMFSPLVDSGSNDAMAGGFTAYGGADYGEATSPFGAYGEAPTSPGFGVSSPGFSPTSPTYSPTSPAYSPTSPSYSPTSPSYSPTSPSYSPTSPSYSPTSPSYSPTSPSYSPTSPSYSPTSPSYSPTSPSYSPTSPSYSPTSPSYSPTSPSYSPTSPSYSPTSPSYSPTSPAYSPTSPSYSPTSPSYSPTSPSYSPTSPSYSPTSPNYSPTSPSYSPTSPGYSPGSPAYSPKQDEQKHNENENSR

B1: BirA*-hNDF fusion protein (natural protein, human, UniProt Q49A26 1-553, looked up)
chain: MAAVSLRLGDLVWGKLGRYPPWPGKIVNPPKDLKKPRGKKCFFVKFFGTEDHAWIKVEQLKPYHAHKEEMIKINKGKRFQQAVDAVEEFLRRAKGKDQTSSHNSSDDKNRRNSSEERSRPNSGDEKRKLSLSEGKVKKNMGEGKKRVSSGSSERGSKSPLKRAQEQSPRKRGRPPKDEKDLTIPESSTVKGMMAGPMAAFKWQPTASEPVKDADPHFHHFLLSQTEKPAVCYQAITKKLKICEEETGSTSIQAADSTAVNGSITPTDKKIGFLGLGLMGSGIVSNLLKMGHTVTVWNRTAEKCDLFIQEGARLGRTPAEVVSTCDITFACVSDPKAAKDLVLGPSGVLQGIRPGKCYVDMSTVDADTVTELAQVIVSRGGRFLEAPVSGNQQLSNDGMLVILAAGDRGLYEDCSSCFQAMGKTSFFLGEVGNAAKMMLIVNMVQGSFMATIAEGLTLAQVTGQSQQTLLDILNQGQLASIFLDQKCQNILQGNFKPDFYLKYIQKDLRLAIALGDAVNHPTPMAAAANEVYKRAKALDQSDNDMSAVYRAYIH
notes: human NDF / GLYR1 fused to the promiscuous biotin ligase BirA*; The name is printed in both orders (BirA*-hNDF, hNDF-BirA*); the construct's name puts BirA* before hNDF; also called hNDF-BirA*; hNDF-BirA; source: pET21b-N-His6-BirA*-hNDF expression construct, purified as previously described [44]; not shown: BirA* (promiscuous biotin ligase), N-terminal, kept
B1: binds.

— publication PMC12112590, “NDF/GLYR1 Promotes RNA Polymerase II Processivity via Pol II Binding and Nucleosome Destabilization” (International Journal of Molecular Sciences, 2025)
